Experimental data: PMC11041684

Target: Schlegelella thermodepolymerans KpsE (L77C, S138C) (Schlegelella thermodepolymerans)
Test: cryo-EM structure; KpsMT(E151Q)-KpsE, co-expressed and purified in LMNG (100 mM NaCl, 50 mM Tris pH 7.5, 0.025% LMNG, 5 mM MgCl2), supplemented with 2 mM ATP before grid preparation

“Schlegelella thermodepolymerans KpsE (L77C, S138C) (natural protein)” was tested, and the stoichiometry N was 8.
